# Results: PMC7994203, “E3 ligase-inactivation rewires CBL interactome to elicit oncogenesis by hijacking RTK–CBL–CIN85 axis” (Oncogene, 2021)
# Non-standard residues stand in square brackets, D forms with d. No end group written: not given here. pY = N[C@@H](Cc1ccc(OP(=O)(O)O)cc1)C(=O)O
# T1: GST-CBL-Y371S (47–435) (UniProt P22681 47-435, Y371S)
# T1 construct: CBL fragment, residues 47-435, with the MDS/MPN mutation Y371S; also called CBL-Y371S fragment; source: recombinant, purified (preparation in the Supplemental Information); not shown: GST, N-terminal, kept
# T1 sequence (looked up): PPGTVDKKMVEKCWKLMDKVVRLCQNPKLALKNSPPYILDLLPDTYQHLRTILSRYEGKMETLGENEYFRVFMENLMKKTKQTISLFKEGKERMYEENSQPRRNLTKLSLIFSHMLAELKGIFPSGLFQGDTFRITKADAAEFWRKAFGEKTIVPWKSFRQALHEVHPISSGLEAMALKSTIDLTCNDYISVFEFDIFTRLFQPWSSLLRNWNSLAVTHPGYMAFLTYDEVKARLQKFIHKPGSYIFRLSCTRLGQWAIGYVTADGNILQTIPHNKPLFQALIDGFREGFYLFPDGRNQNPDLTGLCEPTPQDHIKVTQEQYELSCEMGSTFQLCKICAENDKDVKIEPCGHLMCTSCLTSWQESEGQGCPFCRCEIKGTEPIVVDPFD
# T2: GST-WT-CBL (47–435) (UniProt P22681 47-435)
# T2 construct: CBL fragment, residues 47-435; also called WT-CBL fragment; source: recombinant, purified (preparation in the Supplemental Information); not shown: GST, N-terminal, kept
# T2 sequence (looked up): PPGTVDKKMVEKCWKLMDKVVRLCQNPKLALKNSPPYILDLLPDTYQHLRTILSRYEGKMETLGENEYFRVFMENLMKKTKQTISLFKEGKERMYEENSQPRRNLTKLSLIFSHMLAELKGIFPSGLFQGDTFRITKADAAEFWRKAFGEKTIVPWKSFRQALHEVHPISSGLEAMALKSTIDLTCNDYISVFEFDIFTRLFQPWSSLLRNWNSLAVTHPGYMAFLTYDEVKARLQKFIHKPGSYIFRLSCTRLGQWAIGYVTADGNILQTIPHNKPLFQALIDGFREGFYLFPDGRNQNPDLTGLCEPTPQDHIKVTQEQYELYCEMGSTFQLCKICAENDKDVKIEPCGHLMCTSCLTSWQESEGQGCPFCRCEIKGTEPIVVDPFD
# Tests used:
# Assay in all cases: SPR; proteins immobilized via an N-terminal GST-tag, peptides as analyte; Biacore T200, steady-state affinity
# GST-CBL-Y371S (47–435) = molecular target: T1, GST-CBL-Y371S (47–435); conditions: both partners purified
# GST-WT-CBL (47–435) = molecular target: T2, GST-WT-CBL (47–435); conditions: both partners purified
# GST-CIN85-SH3B = molecular target: GST-CIN85-SH3B
# GST-CIN85-SH3C = molecular target: GST-CIN85-SH3C
# GST-CIN85-SH3A = molecular target: GST-CIN85-SH3A
# GST-CIN85 full-length = molecular target: T3, GST-CIN85 full-length (UniProt Q96B97 1-665); conditions: both partners purified
# T3 construct: CIN85 full-length; also called CIN85 FL; source: recombinant, purified (preparation in the Supplemental Information); not shown: GST, N-terminal, kept
# T3 sequence (Q96B97 whole entry): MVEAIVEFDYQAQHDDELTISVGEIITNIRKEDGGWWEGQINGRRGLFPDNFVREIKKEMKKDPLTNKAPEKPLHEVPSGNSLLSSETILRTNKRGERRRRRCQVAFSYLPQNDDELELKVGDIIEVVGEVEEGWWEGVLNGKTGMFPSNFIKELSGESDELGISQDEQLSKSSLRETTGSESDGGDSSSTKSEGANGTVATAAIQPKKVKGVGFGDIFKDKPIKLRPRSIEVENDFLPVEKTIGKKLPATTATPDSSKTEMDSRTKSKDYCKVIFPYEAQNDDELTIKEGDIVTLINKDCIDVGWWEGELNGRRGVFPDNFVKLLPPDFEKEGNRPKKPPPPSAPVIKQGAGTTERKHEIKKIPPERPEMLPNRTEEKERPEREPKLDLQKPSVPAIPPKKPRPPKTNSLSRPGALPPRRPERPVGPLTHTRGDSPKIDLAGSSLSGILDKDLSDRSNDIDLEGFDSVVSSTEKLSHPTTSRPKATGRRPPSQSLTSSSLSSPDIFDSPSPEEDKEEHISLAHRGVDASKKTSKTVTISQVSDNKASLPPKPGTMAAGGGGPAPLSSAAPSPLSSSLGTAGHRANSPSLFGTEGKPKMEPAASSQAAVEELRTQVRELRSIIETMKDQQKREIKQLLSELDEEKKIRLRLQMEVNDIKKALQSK
binder,measurement,setting,value
LQR[pY]SSDPTGA (EGFR peptide with a phosphotyrosine; also called pY-EGFR peptide) [tyrosine-phosphorylated EGFR peptide],Kd,GST-CBL-Y371S (47–435),0.6 µM
same,Kd,GST-WT-CBL (47–435),1.2 µM
PERPPKPFPRRIN (also called proline-rich peptide of CBL) [PepC1],Kd,GST-CIN85-SH3B,2.3 µM
same,Kd,GST-CIN85-SH3C,68 µM
same,Kd,GST-CIN85-SH3A,35.6 µM
same,Kd,GST-CIN85 full-length,5.5 µM
